* marks the point of attachment. 6xHis = N-terminal hexahistidine tag, N[C@@H](Cc1c[nH]cn1)C(=O)N[C@@H](Cc1c[nH]cn1)C(=O)N[C@@H](Cc1c[nH]cn1)C(=O)N[C@@H](Cc1c[nH]cn1)C(=O)N[C@@H](Cc1c[nH]cn1)C(=O)N[C@@H](Cc1c[nH]cn1)C(=O)*
T1: FtsA (E. coli, UniProt P0ABH0 1-420)
T1 sequence (looked up): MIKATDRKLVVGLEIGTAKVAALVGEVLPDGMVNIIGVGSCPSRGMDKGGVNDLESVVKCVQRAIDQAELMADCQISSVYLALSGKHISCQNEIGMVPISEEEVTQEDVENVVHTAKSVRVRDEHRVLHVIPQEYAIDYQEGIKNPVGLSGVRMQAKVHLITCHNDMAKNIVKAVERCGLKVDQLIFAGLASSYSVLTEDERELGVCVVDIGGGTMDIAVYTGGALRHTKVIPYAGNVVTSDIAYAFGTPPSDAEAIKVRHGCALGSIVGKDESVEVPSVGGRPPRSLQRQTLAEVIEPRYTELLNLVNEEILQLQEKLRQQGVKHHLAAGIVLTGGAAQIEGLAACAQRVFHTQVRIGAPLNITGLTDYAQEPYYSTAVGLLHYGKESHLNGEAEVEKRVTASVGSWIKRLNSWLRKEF


Target: T1, FtsA
Test: TIRF microscopy of FtsZ membrane recruitment on supported lipid bilayers

binding result | Binder
binds | Alexa Fluor 488-labeled FtsZ (natural protein, E. coli, UniProt P0A9A6 1-383, looked up, Alexa Fluor 488 label (site not stated)) MFEPMELTNDAVIKVIGVGGGGGNAVEHMVRERIEGVEFFAVNTDAQALRKTAVGQTIQIGSGITKGLGAGANPEVGRNAADEDRDALRAALEGADMVFIAAGMGGGTGTGAAPVVAEVAKDLGILTVAVVTKPFNFEGKKRMAFAEQGITELSKHVDSLITIPNDKLLKVLGRGISLLDAFGAANDVLKGAVQGIAELITRPGLMNVDFADVRTVMSEMGYAMMGSGVASGEDRAEEAAEMAISSPLLEDIDLSGARGVLVNITAGFDLRLDEFETVGNTIRAFASDNATVVIGTSLDPDMNDELRVTVVATGIGMDKRPEITLVTNKQVQQPVMDRYQQHGMAPLTQEQKPVAKVVNDNAPQTAKEPDYLDIPAFLRKQAD
binds | ^N-pepPBP1b (residues 1-64) peptide, N-terminal 6x-His tag, C-terminal cysteine, labelled with cyanine 5 (peptide) peptide: 6xHis-MAGNDREPIGRKGKPTRPVKQKVSRRRYEDDDDYDDYDDYEDEEPMPRKGKGKGKGRKPRGKRGC(sulfo‑cyanine5‑maleimide)
